From the supplement of paper PMC9233669
Fewer inactive variants are shown than the library holds.

What was measured:
[1] = system: biotinyl-Leu-oxazolone; assay: self-aminoacylation, catalytic enhancement (BLO) (fold over background); higher = more active; k-Seq, kA / k0A0; sequences stand for … in GGGAAUGGAUCCACAUCUACGAAUUC…UUCACUGCAGACUUGACGAAGCUG
How it was run: (§1)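 Each biotinyl-aminoacyl-oxazolone, at 2–1250 μM, was incubated with mutagenized RNA pools (0.43 μM) carrying a 21-nt variable region. The 50 μL reactions contained HEPES/NaCl/KCl/MgCl2/CaCl2 buffer with 5% acetonitrile at pH 6.9–7.0 and ran for 90 minutes at room temperature. After streptavidin capture, RNA was measured by qPCR in triplicate and by Illumina sequencing, and catalytic enhancement was calculated as median kA over the uncatalyzed rate from a pseudo-first-order fit of per-sequence fraction reacted.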

[2] = system: biotinyl-Phe-oxazolone; assay: self-aminoacylation, catalytic enhancement (BFO) (fold over background); higher = more active; k-Seq, kA / k0A0; sequences stand for … in GGGAAUGGAUCCACAUCUACGAAUUC…UUCACUGCAGACUUGACGAAGCUG
How it was run: as §1

[3] = system: biotinyl-Ile-oxazolone; assay: self-aminoacylation, catalytic enhancement (BIO) (fold over background); higher = more active; k-Seq, kA / k0A0; sequences stand for … in GGGAAUGGAUCCACAUCUACGAAUUC…UUCACUGCAGACUUGACGAAGCUG
How it was run: as §1

[4] = system: biotinyl-Val-oxazolone; assay: self-aminoacylation, catalytic enhancement (BVO) (fold over background); higher = more active; k-Seq, kA / k0A0; sequences stand for … in GGGAAUGGAUCCACAUCUACGAAUUC…UUCACUGCAGACUUGACGAAGCUG
How it was run: as §1

[5] = system: biotinyl-Trp-oxazolone; assay: self-aminoacylation, catalytic enhancement (BWO) (fold over background); higher = more active; k-Seq, kA / k0A0; sequences stand for … in GGGAAUGGAUCCACAUCUACGAAUUC…UUCACUGCAGACUUGACGAAGCUG
How it was run: as §1

[6] = system: biotinyl-Met-oxazolone; assay: self-aminoacylation, catalytic enhancement (BMO) (fold over background); higher = more active; k-Seq, kA / k0A0; sequences stand for … in GGGAAUGGAUCCACAUCUACGAAUUC…UUCACUGCAGACUUGACGAAGCUG
How it was run: as §1

Sequence | self-aminoacylation [1] | self-aminoacylation [2] | self-aminoacylation [3] | self-aminoacylation [4] | self-aminoacylation [5] | self-aminoacylation [6]
AAGUCUGCUAAUAGUAGCAAG [Fam3.1 aminoacylation ribozyme variant] | 1.44 | 1.42 | 0.968 | 1.08 | 1.67 | 1.24
CCACACUUCAAGCAACCGGCC [Fam1B.1 aminoacylation ribozyme variant] | 2.77 | 17.4 | 3.66 | 3.58 | 5.33 | 4.29
AUUCACCUAGUUCAUUGGGUG [Fam2.2 aminoacylation ribozyme variant] | 3.47 | 18.9 | 1.85 | 1.62 | 2.83 | 2.54
AUUGACCUAGAUCAUCGGGUG [Fam2.2 aminoacylation ribozyme variant] | 3.59 | 18 | 2.54 | 2.54 | 3.51 | 3.5
AUCCACCUAGGUCCUCGGGUG [Fam2.2 aminoacylation ribozyme variant] | 6.47 | 31.1 | 3.76 | 4.71 | 6.83 | 6.2
CCACACUUCAAGAAAUCGGUG [Fam1B.1 aminoacylation ribozyme variant] | 10.6 | 55.3 | 4.82 | 3.53 | 8.37 | 6.53
AUUUACCUGGGUCAUCGGGUG [Fam2.2 aminoacylation ribozyme variant] | 22.1 | 57.3 | 8.99 | 10.3 | 17.2 | 18.5
CUACUUCAAACAUUCGGUUUG [Fam1A.1 aminoacylation ribozyme variant] | 0.962 | 0.613 | 1.17 | 1.2 | 1.43 | 1.05
AAUACCCUGGUCAACGAGUGA [Fam2.1 aminoacylation ribozyme variant] | 4.32 | 11.1 | 2.88 | 2.53 | 5.89 | 4.19
AGGUUUCCUAAUAGUCGCAAG [Fam3.1 aminoacylation ribozyme variant] | 1.61 | 2.49 | 1.65 | 1.44 | 1.54 | 1.6
ACUAGCCUGGUCAUCGAGUGA [Fam2.1 aminoacylation ribozyme variant] | 4.72 | 30.2 | 3.66 | 3.68 | 5.21 | 4.28
AUUCACCUAGGUUAUCGGAUG [Fam2.2 aminoacylation ribozyme variant] | 0.673 | 0.355 | 0.661 | 0.986 | 0.723 | 0.712
AUUACCCUGGUCACCGAGUGC [Fam2.1 aminoacylation ribozyme variant] | 2.61 | 3.95 | 1.76 | 1.45 | 2.11 | 1.43
CCACAGUACAAGCAAUCGGUC [Fam1B.1 aminoacylation ribozyme variant] | 1.03 | 1.77 | 1.17 | 1.24 | 0.861 | 1.27
AUUCACCUAGGUCAACGGGGG [Fam2.2 aminoacylation ribozyme variant] | 2.19 | 12.7 | 1.75 | 1.84 | 2.31 | 1.83
AUUCACCAAGGUCAUCCGGUG [Fam2.2 aminoacylation ribozyme variant] | 11.4 | 59.6 | 5.51 | 4.96 | 7.89 | 7.8
AUUCACGUACGUCAUCGGGUG [Fam2.2 aminoacylation ribozyme variant] | 12.8 | 79.8 | 6.46 | 6.9 | 9.47 | 12.2
CUACUUCAAACACUCGGCCUG [Fam1A.1 aminoacylation ribozyme variant] | 2.05 | 1.38 | 1.96 | 2.38 | 2.01 | 1.59
AUUCACCUAGGUCCUCGGGCG [Fam2.2 aminoacylation ribozyme variant] | 4.27 | 35.3 | 3.37 | 2.7 | 3.17 | 4.65
CUACAUUAAACAAUCGGUCUG [Fam1A.1 aminoacylation ribozyme variant] | 0.898 | 0.647 | 0.992 | 0.819 | 0.75 | 1.14
AAGUUCGCAAAUAGUCGCAAG [Fam3.1 aminoacylation ribozyme variant] | 2.86 | 3.4 | 1.84 | 1.44 | 1.42 | 2.13
CAACUUCCAACAAUCGGUCUG [Fam1A.1 aminoacylation ribozyme variant] | 0.985 | 1.69 | 1.13 | 0.929 | 1.14 | 1.15
AUUCAUCUAGGUCAUCGGGAG [Fam2.2 aminoacylation ribozyme variant] | 0.697 | 0.786 | 1.11 | 1.16 | 1.36 | 0.945
CUACUUCGAACCAUCGGUCUG [Fam1A.1 aminoacylation ribozyme variant] | 0.61 | 0.458 | 0.723 | 0.779 | 0.463 | 0.813
AUGUUUGCUAAUAGUCGCAAC [Fam3.1 aminoacylation ribozyme variant] | 1.04 | 1.82 | 1.15 | 1.05 | 1.08 | 1.05
GUCCUUCAAACAAUCGGUCUG [Fam1A.1 aminoacylation ribozyme variant] | 1.49 | 11.9 | 1.31 | 1.52 | 11 | 1.35
